Reference: the Human Domainome abundance scans (Beltran et al. 2025)
± gives the uncertainty stated by the source.

B1: Triacylglycerol hydrolase DDHD2, residues 389 to 447; numbered along this chain, O94830 (parent)
chain: TLEEDLKKLQLSEFFDIFEKEKVDKEALALCTDRDLQEIGIPLGPRKKILNYFSTRKNS

Variants of: B1
Test: abundance fitness (aPCA) (normalised: wild type 0, dead -1); higher = more abundant; growth selection in yeast, the domain comes from the species named
Conditions: Homo sapiens

Row | Variant | abundance fitness
1 | TLEEDLKKLQGSEFFDIFEKEKVDKEALALCTDRDLQEIGIPLGPRKKILNYFSTRKNS [L11G] | -1.22 ± 0.095
2 | TLEEDLKKLQHSEFFDIFEKEKVDKEALALCTDRDLQEIGIPLGPRKKILNYFSTRKNS [L11H] | -0.83 ± 0.1
3 | TLEEDLKKLQISEFFDIFEKEKVDKEALALCTDRDLQEIGIPLGPRKKILNYFSTRKNS [L11I] | -0.257 ± 0.14
4 | TLEEDLKKLQKSEFFDIFEKEKVDKEALALCTDRDLQEIGIPLGPRKKILNYFSTRKNS [L11K] | -1.14 ± 0.15
5 | TLEEDLKKLQMSEFFDIFEKEKVDKEALALCTDRDLQEIGIPLGPRKKILNYFSTRKNS [L11M] | -0.125 ± 0.058
6 | TLEEDLKKLQNSEFFDIFEKEKVDKEALALCTDRDLQEIGIPLGPRKKILNYFSTRKNS [L11N] | -1.02 ± 0.21
7 | TLEEDLKKLQPSEFFDIFEKEKVDKEALALCTDRDLQEIGIPLGPRKKILNYFSTRKNS [L11P] | -1 ± 0.089
8 | TLEEDLKKLQRSEFFDIFEKEKVDKEALALCTDRDLQEIGIPLGPRKKILNYFSTRKNS [L11R] | -0.996 ± 0.068
9 | TLEEDLKKLQSSEFFDIFEKEKVDKEALALCTDRDLQEIGIPLGPRKKILNYFSTRKNS [L11S] | -0.969 ± 0.072
10 | TLEEDLKKLQTSEFFDIFEKEKVDKEALALCTDRDLQEIGIPLGPRKKILNYFSTRKNS [L11T] | -0.871 ± 0.093
11 | TLEEDLKKLQVSEFFDIFEKEKVDKEALALCTDRDLQEIGIPLGPRKKILNYFSTRKNS [L11V] | -0.401 ± 0.053
12 | TLEEDLKKLQWSEFFDIFEKEKVDKEALALCTDRDLQEIGIPLGPRKKILNYFSTRKNS [L11W] | -1.12 ± 0.075
13 | TLEEDLKKLQYSEFFDIFEKEKVDKEALALCTDRDLQEIGIPLGPRKKILNYFSTRKNS [L11Y] | -1.15 ± 0.19
14 | TLEEDLKKLQLAEFFDIFEKEKVDKEALALCTDRDLQEIGIPLGPRKKILNYFSTRKNS [S12A] | -0.023 ± 0.052
15 | TLEEDLKKLQLCEFFDIFEKEKVDKEALALCTDRDLQEIGIPLGPRKKILNYFSTRKNS [S12C] | -0.22 ± 0.093
16 | TLEEDLKKLQLDEFFDIFEKEKVDKEALALCTDRDLQEIGIPLGPRKKILNYFSTRKNS [S12D] | 0.037 ± 0.074
17 | TLEEDLKKLQLEEFFDIFEKEKVDKEALALCTDRDLQEIGIPLGPRKKILNYFSTRKNS [S12E] | 0.016 ± 0.066
18 | TLEEDLKKLQLGEFFDIFEKEKVDKEALALCTDRDLQEIGIPLGPRKKILNYFSTRKNS [S12G] | -0.099 ± 0.058
19 | TLEEDLKKLQLHEFFDIFEKEKVDKEALALCTDRDLQEIGIPLGPRKKILNYFSTRKNS [S12H] | 0.052 ± 0.083
20 | TLEEDLKKLQLIEFFDIFEKEKVDKEALALCTDRDLQEIGIPLGPRKKILNYFSTRKNS [S12I] | -0.012 ± 0.083
21 | TLEEDLKKLQLKEFFDIFEKEKVDKEALALCTDRDLQEIGIPLGPRKKILNYFSTRKNS [S12K] | -0.032 ± 0.078
22 | TLEEDLKKLQLLEFFDIFEKEKVDKEALALCTDRDLQEIGIPLGPRKKILNYFSTRKNS [S12L] | -0.104 ± 0.054
23 | TLEEDLKKLQLMEFFDIFEKEKVDKEALALCTDRDLQEIGIPLGPRKKILNYFSTRKNS [S12M] | -0.119 ± 0.072

Row | Variant | abundance fitness
24 | TLEEDLKKLQLPEFFDIFEKEKVDKEALALCTDRDLQEIGIPLGPRKKILNYFSTRKNS [S12P] | -0.301 ± 0.066
25 | TLEEDLKKLQLQEFFDIFEKEKVDKEALALCTDRDLQEIGIPLGPRKKILNYFSTRKNS [S12Q] | 0.101 ± 0.075
26 | TLEEDLKKLQLREFFDIFEKEKVDKEALALCTDRDLQEIGIPLGPRKKILNYFSTRKNS [S12R] | -0.274 ± 0.06
27 | TLEEDLKKLQLTEFFDIFEKEKVDKEALALCTDRDLQEIGIPLGPRKKILNYFSTRKNS [S12T] | 0.017 ± 0.059
28 | TLEEDLKKLQLVEFFDIFEKEKVDKEALALCTDRDLQEIGIPLGPRKKILNYFSTRKNS [S12V] | -0.099 ± 0.052
29 | TLEEDLKKLQLWEFFDIFEKEKVDKEALALCTDRDLQEIGIPLGPRKKILNYFSTRKNS [S12W] | -0.137 ± 0.075
30 | TLEEDLKKLQLYEFFDIFEKEKVDKEALALCTDRDLQEIGIPLGPRKKILNYFSTRKNS [S12Y] | -0.13 ± 0.088
31 | TLEEDLKKLQLSAFFDIFEKEKVDKEALALCTDRDLQEIGIPLGPRKKILNYFSTRKNS [E13A] | -0.036 ± 0.089
32 | TLEEDLKKLQLSGFFDIFEKEKVDKEALALCTDRDLQEIGIPLGPRKKILNYFSTRKNS [E13G] | -0.576 ± 0.1
33 | TLEEDLKKLQLSLFFDIFEKEKVDKEALALCTDRDLQEIGIPLGPRKKILNYFSTRKNS [E13L] | -0.608 ± 0.11
34 | TLEEDLKKLQLSMFFDIFEKEKVDKEALALCTDRDLQEIGIPLGPRKKILNYFSTRKNS [E13M] | -0.135 ± 0.17
35 | TLEEDLKKLQLSPFFDIFEKEKVDKEALALCTDRDLQEIGIPLGPRKKILNYFSTRKNS [E13P] | -0.432 ± 0.16
36 | TLEEDLKKLQLSQFFDIFEKEKVDKEALALCTDRDLQEIGIPLGPRKKILNYFSTRKNS [E13Q] | -0.215 ± 0.15
37 | TLEEDLKKLQLSRFFDIFEKEKVDKEALALCTDRDLQEIGIPLGPRKKILNYFSTRKNS [E13R] | -0.408 ± 0.098
38 | TLEEDLKKLQLSSFFDIFEKEKVDKEALALCTDRDLQEIGIPLGPRKKILNYFSTRKNS [E13S] | -0.252 ± 0.1
39 | TLEEDLKKLQLSTFFDIFEKEKVDKEALALCTDRDLQEIGIPLGPRKKILNYFSTRKNS [E13T] | -0.538 ± 0.15
40 | TLEEDLKKLQLSVFFDIFEKEKVDKEALALCTDRDLQEIGIPLGPRKKILNYFSTRKNS [E13V] | -0.109 ± 0.088
41 | TLEEDLKKLQLSWFFDIFEKEKVDKEALALCTDRDLQEIGIPLGPRKKILNYFSTRKNS [E13W] | -1.45 ± 0.27
42 | TLEEDLKKLQLSYFFDIFEKEKVDKEALALCTDRDLQEIGIPLGPRKKILNYFSTRKNS [E13Y] | -0.012 ± 0.22
43 | TLEEDLKKLQLSEAFDIFEKEKVDKEALALCTDRDLQEIGIPLGPRKKILNYFSTRKNS [F14A] | -0.098 ± 0.086
44 | TLEEDLKKLQLSECFDIFEKEKVDKEALALCTDRDLQEIGIPLGPRKKILNYFSTRKNS [F14C] | -0.28 ± 0.11
45 | TLEEDLKKLQLSEEFDIFEKEKVDKEALALCTDRDLQEIGIPLGPRKKILNYFSTRKNS [F14E] | -0.592 ± 0.11
